Test results taken from paper PMC3643951 (PLoS ONE, 2013).
Positions count from the first letter of the chain named. Names and notes keep the numbering of the source. Blank lines part the entries; values can stand above or below the binder they belong to.

Target: T1, S100A1 protein, dansyl-labelled (human, UniProt P23297 1-94, dansyl (DNS) label from dansyl chloride, site not stated)
T1 construct: human S100A1; cDNA cloned into pET28b; No tag is mentioned; purification was by Phenyl Sepharose; also called DNS-S100A1; Ca2+-S100A1; source: E. coli BL21, purified (Phenyl Sepharose CL4B, Superdex 75), labelled with dansyl chloride
T1 sequence (looked up): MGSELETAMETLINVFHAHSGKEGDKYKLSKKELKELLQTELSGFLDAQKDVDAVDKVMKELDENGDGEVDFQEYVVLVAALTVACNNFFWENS
Experiment: fluorescence polarisation; steady-state fluorescence anisotropy; TRPC6 construct titrated into DNS-S100A1 solution (232 µM as printed) in presence of calcium ions; excitation 340 nm, emission 520 nm
Settings: both partners purified

B1: TRPC6(801–878) K856A (domain or fragment, rat, UniProt Q99N78 801-878, looked up)
chain: NKRNEEKKFGILGSHEDLSKFSLDRNQLAHNKQSSTRSSEDFHLNSFSNPPRQYQAIMKRLIKRYVLQAQIDKESDEV
notes: C-terminal part of rat TRPC6, amino acids 801-878, with K856A; Same construct as m1 (pET42b) with the point mutation; source: E. coli Rosetta, purified (Chelating Sepharose Fast Flow, Superdex 75)
Kd: 760 nM

B3: TRPC6(801–878) R852A/K859A/R860A (domain or fragment, rat, UniProt Q99N78 801-878, looked up)
chain: B1 chain with R52A, A56K, K59A, R60A
notes: C-terminal part of rat TRPC6, amino acids 801-878, with R852A, K859A and R860A; Same construct as m1 (pET42b) with the triple substitution; also called triple mutation Arg852/Lys859/Arg860; source: E. coli Rosetta, purified (Chelating Sepharose Fast Flow, Superdex 75)
Kd: 2620 nM

B5: TRPC6(801–878) R864A (domain or fragment, rat, UniProt Q99N78 801-878, looked up)
chain: B1 chain with A56K, R64A
notes: C-terminal part of rat TRPC6, amino acids 801-878, with R864A; Same construct as m1 (pET42b) with the point mutation; source: E. coli Rosetta, purified (Chelating Sepharose Fast Flow, Superdex 75)
Kd: 920 nM

These reach a lower Kd. Values come first.

Kd: 480 nM
B2: TRPC6(801–878) R852A (domain or fragment, rat, UniProt Q99N78 801-878, looked up)
chain: B1 chain with R52A, A56K
notes: C-terminal part of rat TRPC6, amino acids 801-878, with R852A; Same construct as m1 (pET42b) with the point mutation; also called TRPC6 single mutant R852A; source: E. coli Rosetta, purified (Chelating Sepharose Fast Flow, Superdex 75)

Kd: 400 nM
B4: TRPC6(801–878) K859A/R860A/R864A (domain or fragment, rat, UniProt Q99N78 801-878, looked up)
chain: B1 chain with A56K, K59A, R60A, R64A
notes: C-terminal part of rat TRPC6, amino acids 801-878, with K859A, R860A and R864A; Same construct as m1 (pET42b) with the triple substitution; also called triple substitution Lys859/Arg860/Arg864; source: E. coli Rosetta, purified (Chelating Sepharose Fast Flow, Superdex 75)
